Consider two molecules from patent US8598081B2, “Specific delivery of agrochemicals” (priority 2010, dated 2013).

Data set [1] concerns surface of black nightshade leaves. In words: VHH binding to non-fixed leaf discs, black nightshade. The following applies: 5 μg/ml, detection with anti-histidine Alexa-488. The method, then: (§1) VHH binding to non-fixed leaf discs of potato (variety Desiree), black nightshade, grass, wheat or azalea was investigated. For comparison, binding of CBM3a to non-fixed leaf discs of potato (variety Desiree) was analyzed in parallel. Leaf discs were prepared by punching a fresh potato leaf with a 5 mm belt hole puncher tool. Leaf discs were put immediately in wells of a 96-well plate containing 200 μl per well 5% MPBS or PBS, and incubated for 30 minutes. Leaf discs were transferred to solutions containing 5 μg/ml VHH antibody fragment, respectively, 5 μg/ml CBM3a in 2% MPBS or PBS and incubated for 60-90 minutes. Unbound VHH or CBM3a proteins were removed by washing three times with 2% MPBS or PBS. Bound VHH or CBM3a proteins were detected with incubation with monoclonal mouse anti-histidine antibodies directly conjugated with Alexa-488 fluorescent dye (Abd Serotec) in 1% MPBS for 1 hour. Unbound antibodies were removed by washing three times with PBS. Leaf discs were put on glass slides, covered with cover slips, and analyzed by microscopy or on a macrozoom microscope system (Nikon) or a SP5 confocal microscope system (Leica).

The subject of a further data set is potato leaf discs. In words: VHH binding at different temperatures, leaf dip experiment. Set-up: species or system potato (variety Desiree). The following applies: temperature range from 4° C. to 55° C.; 5 μg/ml in PBS; 1 hour. The method, then:
In order to test applicability of VHH as binders for greenhouse or field applications where binding supposedly may occur at different and sometimes even extreme temperatures, a leaf dip VHH binding experiment at different temperatures was used. Temperatures used were 4° C., room temperature, 37° C., 55° C., or 70° C. ø 8 mm potato leaf discs (variety Desiree) were cut using a puncher tool. The leaf discs were equilibrated to different temperatures by washing three times with PBS at different temperatures. Hexahistidine-tagged VHH were diluted to 5 μg/ml in PBS at different temperatures, added to the corresponding equilibrated leaf discs, and binding of VHH was allowed for 1 hour at different temperatures. After incubation with VHH, leaf discs were washed five times with PBS at room temperature. Bound VHH were detected by incubation with monoclonal mouse anti-histidine antibodies directly conjugated with Alexa-488 fluorescent dye (Abd Serotec) in PBS for 1 hour at room temperature. Unbound anti-histidine antibodies were removed by washing five times with PBS at room temperature. Leaf discs were analyzed for bound VHH with microscopy. […] Please note that leaf discs severely suffer when submerged in PBS at 70° C. for 1 hour but that binding of VHH was still detected.

Data set [2] has as its system leaf surface of potato leaves. Put plainly: VHH binding to non-fixed leaf discs, potato. Set-up: species or system potato (variety Desiree). The following applies: 5 μg/ml, detection with anti-histidine Alexa-488. The method, then:
as §1

Data set [3] is described as follows: ELISA-like assay, microcapsules with monovalent or bivalent VHH, unrelated antigen. The format is binding. Also noted: unit not given beside the values. The following applies: Uvitex microcapsules. An excerpt:
Bivalent VHH constructs were produced in bacteria by cloning two VHH sequences in tandem into the pASF22 vector, creating a fusion of two VHH with a 9 glycine-serine linker (GGGGSGGGS (SEQ ID NO:50)) in between the two VHH. pASF22 is an in-house produced pMES derivative. The tags that were used were C-terminal c-Myc (EQKLISEEDLN (SEQ ID NO:51)) and hexahistidine (HHHHHH (SEQ ID NO:52)). A triple alanine linker (AAA) was placed in between the C-terminal end of the VHH and the c-Myc tag and a glycine-alanine-alanine (GAA) linker was used in between the C-terminal end of the c-Myc tag and the hexahistidine tag. The complete sequence C-terminal of the bivalent VHH that was used: AAA-EQKLISEEDLN-GAA-HHHHHH (SEQ ID NO:53). Fresh overnight cultures were produced by starting from colony streaks and inoculation of 2×TY media supplemented with 2% glucose and 100 μg/ml ampicillin. The overnight cultures were used to inoculate fresh cultures 1:100 in 2×TY media with 0.1% glucose and 100 μg/ml ampicillin. After growing at 37° C. in a shaking incubator for 3 hours, IPTG was added to a 1 mM final concentration and recombinant bivalent VHH were produced during an additional incubation for 4 hours. Cells were spun down and resuspended in 1/50th of the original culture volume of PBS and incubated with head-over-head rotation at 4° C. for 30 minutes. Spheroplasts were spun down by centrifugation at 3,000 g and 4° C. for 20 minutes. Supernatants were transferred to fresh tubes and centrifuged again at 3,000 g and 4° C. for 20 minutes. The supernatant was collected and sodium chloride concentration was adjusted to 500 mM and imidazole concentration to 20 mM. Hexahistidine-tagged bivalent VHH were purified from the extracts using HisTrap FF Crude 5 ml IMAC columns (GE Lifesciences) and HiLoad 16/60 Superdex 75 prep grade gel filtration column (GE Lifesciences) on an AKTAxpress system (GE Lifesciences) following standard procedures.
Next, it was investigated if binding of microcapsules to surfaces could be improved by using targeting agents comprising multivalent VHH. A series of parallel couplings was performed with equal amounts of monovalent VHH, bivalent VHH, and unrelated VHH. Success of coupling of VHH and multivalent VHH were analyzed as described in Example 4. An ELISA-like assay was performed using high bind half area microplates (Greiner Bio-One) coated with 5 μg/well potato lectin. Control wells included blank wells or wells coated with unrelated antigens. Plates were washed three times with PBS with 0.05%-TWEEN®-20 and blocked with 5% skimmed milk in PBS for 1 to 2 hours. VHH-coupled Uvitex-containing microcapsules were diluted to appropriate densities in 1% skimmed milk in PBS with 0.05%-TWEEN®-20. Five-fold serial dilution series were prepared and allowed to bind to the surface to compare binding of microcapsules coupled with monovalent or bivalent VHH. Microcapsules were added to the antigen-coated or control wells and allowed to bind for 1 hour. Unbound microcapsules were removed by washing five times with PBS with 0.05%-TWEEN®-20. The bottoms of ELISA plate wells were analyzed for bound microcapsules on a macrozoom microscope system (Nikon). Microcapsules were counted using Volocity image analysis software (Perkin Elmer). A DAPI filter was used to visualize Uvitex microcapsules. […] The surface area of microcapsules with coupled bivalent VHH was 15-fold above the surface area of blank microcapsules applied at this microcapsule density while the surface area of microcapsules with monovalent VHH was only six-fold above the surface area of blank microcapsules applied at this microcapsule density. This difference could be explained by an increase in binding strength due to additional avidity of the bivalent VHH compared to monovalent VHH, it could also be that the use of bivalent VHH increases flexibility and spacer length of the coupled targeting agents on microcapsules, or a combination of both.
Background: An ELISA detects its analyte on a solid surface through an enzyme-linked reagent.

B1: VHH 3E6: VHH binding gum arabic, potato lectin and leaf surface; SEQ ID NO:7 by order of the list (protein, listed as Lama glama)
VHH: QVQLQESGGGLVQPGGTLSLSCAASGFNVRWYGMGWFRQAPGKEREGVACISALQETTAYADSVKGRFTLSRDNPKNTLSLQMNNLQPEDTGVYYCATTDCDDSSRMTYTSYLGQGTQVTVSS
modifications: 3E6
With B1, the “binding to native black nightshade leaf surface (fluorescence microscopy)” value in data set [1] is “binding leaf surface, glandular trichomes, and leaf hairs”; in data set [1] (listed as 3E6), “bind specifically”. For the same molecule, the “binding to leaf discs at different temperatures” value in the data set with potato leaf discs is recorded as “detectable binding”. The “binding to native potato leaf surface (fluorescence microscopy)” value in data set [2] is “binding leaf surface, stomata, glandular trichomes, and leaf hairs”; in data set [2] (listed as 3E6), “clearly binding to trichomes, stomata and cuticle”.

B2: Microcapsules containing uvitex OB VHH 3E6: polyurea microcapsules containing the fluorescent tracer Uvitex OB, coupled with (monovalent) VHH 3E6 (conjugate)
VHH: B1 VHH
modifications: left off: small tags and cut ends
notes: polyurea microcapsules containing the fluorescent tracer Uvitex OB, coupled with (monovalent) VHH 3E6
B2: the “Surface area of bound microcapsules” value in data set [3] (no coating (second series, with unrelated antigen rows), surface coverage 100%) stood at 72.036; in data set [3] (unrelated antigen, surface coverage 4%), 5.011; in data set [3] (unrelated antigen, surface coverage 20%) it was 27.742; in data set [3] (unrelated antigen, surface coverage 100%) it was 69.503.
